Experimental findings from article PMC7498356 are described below.

Changes are numbered by the printed parent chain.

In series [1] the target is T1, TDRD5 LOTUS domain 1 (L1) (Mus musculus, UniProt Q5VCS6 7-80).
T1 sequence: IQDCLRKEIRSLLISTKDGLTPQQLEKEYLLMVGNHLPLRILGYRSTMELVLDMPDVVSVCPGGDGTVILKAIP
The series is described as follows: pull-down, ELISA. On the technique in general: ELISA stands for enzyme-linked immunosorbent assay.

Series [2] addresses T2, TDRD5 LOTUS domain 3 (L3) (Mus musculus, UniProt Q5VCS6 291-365).
T2 sequence: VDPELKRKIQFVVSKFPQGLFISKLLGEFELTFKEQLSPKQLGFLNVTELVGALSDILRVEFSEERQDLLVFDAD
Put plainly: pull-down, ELISA.

Series [3] deals with T3, TDRD5 LOTUS domain 2 (L2) (Mus musculus, UniProt Q5VCS6 122-197).
T3 sequence: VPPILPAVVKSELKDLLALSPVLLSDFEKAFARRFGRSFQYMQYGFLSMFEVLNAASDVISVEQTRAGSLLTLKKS
Put plainly: pull-down, ELISA.

Series [4] addresses T2, TDRD5 LOTUS domain 3 (L3). The series is described as follows: ELISA.
The target in series [5] is T1, TDRD5 LOTUS domain 1 (L1). Put plainly: DRaCALA.
For the next series, the target named is T4, TDRD7 L2 (Mus musculus, UniProt Q8K1H1 222-291).
T4 sequence: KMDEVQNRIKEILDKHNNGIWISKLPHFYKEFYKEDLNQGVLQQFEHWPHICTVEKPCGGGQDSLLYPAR
Put plainly: ELISA.

A further series addresses T5, TDRD7 L3 (Mus musculus, UniProt Q8K1H1 325-394).
T5 sequence: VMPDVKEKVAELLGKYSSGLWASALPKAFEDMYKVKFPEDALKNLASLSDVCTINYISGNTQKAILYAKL
The series is described as follows: ELISA.

The next series addresses T6, human TDRD5 L1 (Homo sapiens, UniProt Q8NAT2 7-80).
T6 sequence: T1 sequence with D3E, T21S, Q24E, S59R, G64A, D65G
The series is described as follows: ELISA.

The target in another series is T7, TP0894-LOTUS (Treponema pallidum subsp. pallidum str. …, UniProt O83864 178-253).
T7 sequence: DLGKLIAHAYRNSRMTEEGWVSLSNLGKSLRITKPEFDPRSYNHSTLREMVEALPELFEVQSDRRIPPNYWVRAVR
The series is described as follows: ELISA.

For a further series, the target named is T8, Tejas LOTUS (Drosophila, UniProt A1Z9P1 6-79).
T8 sequence: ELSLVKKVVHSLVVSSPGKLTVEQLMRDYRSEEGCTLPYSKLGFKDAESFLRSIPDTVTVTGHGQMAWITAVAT
Put plainly: ELISA.

In another series the target is human TDRD7 L1 (Homo sapiens, UniProt Q8NHU6 3-76). Put plainly: ELISA.
Chain of human TDRD7 L1 (Q8NHU6 3-76): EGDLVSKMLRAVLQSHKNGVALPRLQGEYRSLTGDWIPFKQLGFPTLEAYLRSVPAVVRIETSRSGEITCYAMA
The next series has as its target T9, human MARF1 L7 (Homo sapiens, UniProt Q9Y4F3 1411-1485).
T9 sequence: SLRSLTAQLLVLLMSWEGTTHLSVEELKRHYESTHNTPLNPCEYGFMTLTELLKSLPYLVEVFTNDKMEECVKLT
The series is described as follows: ELISA.

The target of another series is T10, TDRD7 L1 (Mus musculus, UniProt Q8K1H1 3-76).
T10 sequence: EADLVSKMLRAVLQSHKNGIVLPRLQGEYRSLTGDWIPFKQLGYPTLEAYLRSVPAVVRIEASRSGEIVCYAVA
The series is described as follows: ELISA.

The target of a further series is T11, AT3G52980-LOTUS (plant, UniProt Q9LF94 199-282).
T11 sequence: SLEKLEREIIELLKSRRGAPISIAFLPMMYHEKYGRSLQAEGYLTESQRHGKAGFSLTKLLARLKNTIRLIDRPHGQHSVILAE
The series is described as follows: ELISA.

In the next series the target is T12, human MARF1 L1 (Homo sapiens, UniProt Q9Y4F3 875-949).
T12 sequence: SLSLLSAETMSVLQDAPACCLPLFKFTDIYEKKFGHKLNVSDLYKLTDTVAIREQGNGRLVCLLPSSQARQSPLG
The series is described as follows: ELISA.

The target of a further series is T13, Oskar LOTUS (eLOTUS) (Drosophila, UniProt P25158 139-241).
T13 sequence: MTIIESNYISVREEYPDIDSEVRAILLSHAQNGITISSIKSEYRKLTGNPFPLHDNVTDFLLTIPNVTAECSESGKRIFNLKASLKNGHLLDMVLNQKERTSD
The series is described as follows: ELISA.

For series [6], the target named is T1, TDRD5 LOTUS domain 1 (L1). The series is described as follows: ELISA.

As to UUUUUUUUUUUUUUUUUUU (ssRNA) [Poly(U)], the binding result in series [1], in series [2] and in series [3] was “no binding” each time.
Regarding GGGGGGGGGGGGGGGGGGG (ssRNA) [Poly(G)], in [4], the binding result is reported as “no binding”.
Take CCCCCCCCCCCCCCCCCCC (ssRNA) [Poly(C)]: the binding result in series [1], in series [2] and in [3] was “no binding” in each case.
With GGUGGGCAGGGGAGUGGGGGUGGG (structured_RNA) [Cluster G4-1 RNA], the binding result is “binds” in [5]; “no binding” in series [2]; “binds” with TDRD7 L2; “binds” in the series with TDRD7 L3; “binds” with human TDRD5 L1; “binds” with TP0894-LOTUS. Also, the binding result with Tejas LOTUS, with human TDRD7 L1, with human MARF1 L7, in the series with TDRD7 L1, with AT3G52980-LOTUS and in the series with human MARF1 L1 was “binds” each time. In addition, the binding result in the series with Oskar LOTUS (eLOTUS) is given as “binds”.
As to AAAAAAAAAAAAAAAAAAA (ssRNA) [Poly(A)], the binding result in [1], in series [2] and in series [3] was “no binding” throughout.
As to TTAGGGTTAGGGTTAGGGTTAGGG (structured_DNA) [TERRA G4 DNA], the binding result in series [6] is reported as “no binding”.
